T1: EsCas13d, nuclease-dead (Eubacterium siraeum, UniProt B0MS50, R295A;H300A;R849A;H854A)
T1 sequence: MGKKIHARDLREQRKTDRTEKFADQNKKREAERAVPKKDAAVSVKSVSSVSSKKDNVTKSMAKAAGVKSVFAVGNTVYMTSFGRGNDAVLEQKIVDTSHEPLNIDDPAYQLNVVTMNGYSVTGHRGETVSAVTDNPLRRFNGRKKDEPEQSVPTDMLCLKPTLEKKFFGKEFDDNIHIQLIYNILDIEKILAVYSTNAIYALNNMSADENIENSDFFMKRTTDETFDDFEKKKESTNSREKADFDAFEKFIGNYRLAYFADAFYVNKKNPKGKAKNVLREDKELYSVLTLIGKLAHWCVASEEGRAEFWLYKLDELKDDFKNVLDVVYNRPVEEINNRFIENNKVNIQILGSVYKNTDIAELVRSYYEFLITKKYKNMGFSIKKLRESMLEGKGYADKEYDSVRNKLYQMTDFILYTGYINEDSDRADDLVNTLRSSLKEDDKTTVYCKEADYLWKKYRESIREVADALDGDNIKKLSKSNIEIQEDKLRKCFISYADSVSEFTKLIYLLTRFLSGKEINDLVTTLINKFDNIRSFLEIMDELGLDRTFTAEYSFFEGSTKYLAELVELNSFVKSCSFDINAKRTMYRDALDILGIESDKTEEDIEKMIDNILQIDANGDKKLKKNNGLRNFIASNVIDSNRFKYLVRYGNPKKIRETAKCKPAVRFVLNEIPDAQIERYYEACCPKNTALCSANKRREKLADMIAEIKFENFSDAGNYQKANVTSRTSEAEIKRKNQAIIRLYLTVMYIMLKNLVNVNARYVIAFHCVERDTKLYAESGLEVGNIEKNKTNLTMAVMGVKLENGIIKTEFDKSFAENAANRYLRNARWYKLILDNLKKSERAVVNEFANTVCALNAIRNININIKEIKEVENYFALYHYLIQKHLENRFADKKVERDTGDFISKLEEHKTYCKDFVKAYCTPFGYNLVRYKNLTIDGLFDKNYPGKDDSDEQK

B1: target 2 MT 5'PFS UUG 3'PFS AUG (mixed)
RNA 1: CACCCGUGCAAAAUUGCAGGGGUCUAAAACCUUCUCCAAAUUGUUUCAUCCU
RNA 2: GGGAAUGGAUCCACAUCUACGAAUUCUUGAGGAUGAAACAAUUUGGAGAAGAUGAGAUCGGAAGAGCACACGU
B2: target 2 MT 5'PFS GUC 3'PFS ACU (mixed)
RNA 1: CACCCGUGCAAAAUUGCAGGGGUCUAAAACCUUCUCCAAAUUGUUUCAUCCU
RNA 2: GGGAAUGGAUCCACAUCUACGAAUUCGUCAGGAUGAAACAAUUUGGAGAAGACUAGAUCGGAAGAGCACACGU
B3: target 2 MT 5'PFS UUG 3'PFS AUA (mixed)
RNA 1: CACCCGUGCAAAAUUGCAGGGGUCUAAAACCUUCUCCAAAUUGUUUCAUCCU
RNA 2: GGGAAUGGAUCCACAUCUACGAAUUCUUGAGGAUGAAACAAUUUGGAGAAGAUAAGAUCGGAAGAGCACACGU
B4: target 2 MT 5'PFS UUG 3'PFS AUC (mixed)
RNA 1: CACCCGUGCAAAAUUGCAGGGGUCUAAAACCUUCUCCAAAUUGUUUCAUCCU
RNA 2: GGGAAUGGAUCCACAUCUACGAAUUCUUGAGGAUGAAACAAUUUGGAGAAGAUCAGAUCGGAAGAGCACACGU
B5: target 2 MT 5'PFS AUG 3'PFS AAU (mixed)
RNA 1: CACCCGUGCAAAAUUGCAGGGGUCUAAAACCUUCUCCAAAUUGUUUCAUCCU
RNA 2: GGGAAUGGAUCCACAUCUACGAAUUCAUGAGGAUGAAACAAUUUGGAGAAGAAUAGAUCGGAAGAGCACACGU
B6: target 2 MT 5'PFS AUG 3'PFS AAA (mixed)
RNA 1: CACCCGUGCAAAAUUGCAGGGGUCUAAAACCUUCUCCAAAUUGUUUCAUCCU
RNA 2: GGGAAUGGAUCCACAUCUACGAAUUCAUGAGGAUGAAACAAUUUGGAGAAGAAAAGAUCGGAAGAGCACACGU
B7: target 2 MT 5'PFS AUG 3'PFS AAC (mixed)
RNA 1: CACCCGUGCAAAAUUGCAGGGGUCUAAAACCUUCUCCAAAUUGUUUCAUCCU
RNA 2: GGGAAUGGAUCCACAUCUACGAAUUCAUGAGGAUGAAACAAUUUGGAGAAGAACAGAUCGGAAGAGCACACGU
B8: target 2 MT 5'PFS GCG 3'PFS UAU (mixed)
RNA 1: CACCCGUGCAAAAUUGCAGGGGUCUAAAACCUUCUCCAAAUUGUUUCAUCCU
RNA 2: GGGAAUGGAUCCACAUCUACGAAUUCGCGAGGAUGAAACAAUUUGGAGAAGUAUAGAUCGGAAGAGCACACGU
B9: target 2 MT 5'PFS CGC 3'PFS UUU (mixed)
RNA 1: CACCCGUGCAAAAUUGCAGGGGUCUAAAACCUUCUCCAAAUUGUUUCAUCCU
RNA 2: GGGAAUGGAUCCACAUCUACGAAUUCCGCAGGAUGAAACAAUUUGGAGAAGUUUAGAUCGGAAGAGCACACGU
B10: target 2 MT 5'PFS CGC 3'PFS CGU (mixed)
RNA 1: CACCCGUGCAAAAUUGCAGGGGUCUAAAACCUUCUCCAAAUUGUUUCAUCCU
RNA 2: GGGAAUGGAUCCACAUCUACGAAUUCCGCAGGAUGAAACAAUUUGGAGAAGCGUAGAUCGGAAGAGCACACGU
B11: target 1 insG 3' of 10,insA 3' of 3 (mixed)
RNA 1: CACCCGUGCAAAAAUGCAGGGGUCUAAAACUGAGCGGAUAACCUCUCUAUGG
RNA 2: GGGAAUGGAUCCACAUCUACGAAUUCGUACCAUAGAGAGGUUGAUCCGCUACACCGAGAUCGGAAGAGCACACGU
B12: target 2 MT 5'PFS GCG 3'PFS ACG (mixed)
RNA 1: CACCCGUGCAAAAUUGCAGGGGUCUAAAACCUUCUCCAAAUUGUUUCAUCCU
RNA 2: GGGAAUGGAUCCACAUCUACGAAUUCGCGAGGAUGAAACAAUUUGGAGAAGACGAGAUCGGAAGAGCACACGU
B13: target 2 MT 5'PFS ACC 3'PFS CUC (mixed)
RNA 1: CACCCGUGCAAAAUUGCAGGGGUCUAAAACCUUCUCCAAAUUGUUUCAUCCU
RNA 2: GGGAAUGGAUCCACAUCUACGAAUUCACCAGGAUGAAACAAUUUGGAGAAGCUCAGAUCGGAAGAGCACACGU
B14: target 2 MT 5'PFS CAU 3'PFS CUA (mixed)
RNA 1: CACCCGUGCAAAAUUGCAGGGGUCUAAAACCUUCUCCAAAUUGUUUCAUCCU
RNA 2: GGGAAUGGAUCCACAUCUACGAAUUCCAUAGGAUGAAACAAUUUGGAGAAGCUAAGAUCGGAAGAGCACACGU
B15: target 2 MT 5'PFS UUG 3'PFS CUA (mixed)
RNA 1: CACCCGUGCAAAAUUGCAGGGGUCUAAAACCUUCUCCAAAUUGUUUCAUCCU
RNA 2: GGGAAUGGAUCCACAUCUACGAAUUCUUGAGGAUGAAACAAUUUGGAGAAGCUAAGAUCGGAAGAGCACACGU
B16: target 2 MT 5'PFS GCG 3'PFS ACC (mixed)
RNA 1: CACCCGUGCAAAAUUGCAGGGGUCUAAAACCUUCUCCAAAUUGUUUCAUCCU
RNA 2: GGGAAUGGAUCCACAUCUACGAAUUCGCGAGGAUGAAACAAUUUGGAGAAGACCAGAUCGGAAGAGCACACGU
B17: target 2 MT 5'PFS ACC 3'PFS CUG (mixed)
RNA 1: CACCCGUGCAAAAUUGCAGGGGUCUAAAACCUUCUCCAAAUUGUUUCAUCCU
RNA 2: GGGAAUGGAUCCACAUCUACGAAUUCACCAGGAUGAAACAAUUUGGAGAAGCUGAGAUCGGAAGAGCACACGU
B18: target 2 MT 5'PFS GCG 3'PFS ACA (mixed)
RNA 1: CACCCGUGCAAAAUUGCAGGGGUCUAAAACCUUCUCCAAAUUGUUUCAUCCU
RNA 2: GGGAAUGGAUCCACAUCUACGAAUUCGCGAGGAUGAAACAAUUUGGAGAAGACAAGAUCGGAAGAGCACACGU
B19: target 2 MT 5'PFS CGC 3'PFS CGA (mixed)
RNA 1: CACCCGUGCAAAAUUGCAGGGGUCUAAAACCUUCUCCAAAUUGUUUCAUCCU
RNA 2: GGGAAUGGAUCCACAUCUACGAAUUCCGCAGGAUGAAACAAUUUGGAGAAGCGAAGAUCGGAAGAGCACACGU
B20: target 2 MT 5'PFS CGC 3'PFS CGC (mixed)
RNA 1: CACCCGUGCAAAAUUGCAGGGGUCUAAAACCUUCUCCAAAUUGUUUCAUCCU
RNA 2: GGGAAUGGAUCCACAUCUACGAAUUCCGCAGGAUGAAACAAUUUGGAGAAGCGCAGAUCGGAAGAGCACACGU
B21: target 2 MT 5'PFS CGC 3'PFS UUC (mixed)
RNA 1: CACCCGUGCAAAAUUGCAGGGGUCUAAAACCUUCUCCAAAUUGUUUCAUCCU
RNA 2: GGGAAUGGAUCCACAUCUACGAAUUCCGCAGGAUGAAACAAUUUGGAGAAGUUCAGAUCGGAAGAGCACACGU
B22: target 1 insA 3' of 21,insG 3' of 9 (mixed)
RNA 1: CACCCGUGCAAAAAUGCAGGGGUCUAAAACUGAGCGGAUAACCUCUCUAUGG
RNA 2: GGGAAUGGAUCCACAUCUACGAAUUCGUACCAAUAGAGAGGUUAGUCCGCUCACCGAGAUCGGAAGAGCACACGU
B23: target 2 MT 5'PFS GCG 3'PFS UAA (mixed)
RNA 1: CACCCGUGCAAAAUUGCAGGGGUCUAAAACCUUCUCCAAAUUGUUUCAUCCU
RNA 2: GGGAAUGGAUCCACAUCUACGAAUUCGCGAGGAUGAAACAAUUUGGAGAAGUAAAGAUCGGAAGAGCACACGU
B24: target 2 MT 5'PFS CGC 3'PFS CGG (mixed)
RNA 1: CACCCGUGCAAAAUUGCAGGGGUCUAAAACCUUCUCCAAAUUGUUUCAUCCU
RNA 2: GGGAAUGGAUCCACAUCUACGAAUUCCGCAGGAUGAAACAAUUUGGAGAAGCGGAGAUCGGAAGAGCACACGU
B25: target 2 MT 5'PFS GCG 3'PFS UAC (mixed)
RNA 1: CACCCGUGCAAAAUUGCAGGGGUCUAAAACCUUCUCCAAAUUGUUUCAUCCU
RNA 2: GGGAAUGGAUCCACAUCUACGAAUUCGCGAGGAUGAAACAAUUUGGAGAAGUACAGAUCGGAAGAGCACACGU
B26: target 2 MT 5'PFS GCG 3'PFS ACU (mixed)
RNA 1: CACCCGUGCAAAAUUGCAGGGGUCUAAAACCUUCUCCAAAUUGUUUCAUCCU
RNA 2: GGGAAUGGAUCCACAUCUACGAAUUCGCGAGGAUGAAACAAUUUGGAGAAGACUAGAUCGGAAGAGCACACGU
B27: target 2 MT 5'PFS ACC 3'PFS CUU (mixed)
RNA 1: CACCCGUGCAAAAUUGCAGGGGUCUAAAACCUUCUCCAAAUUGUUUCAUCCU
RNA 2: GGGAAUGGAUCCACAUCUACGAAUUCACCAGGAUGAAACAAUUUGGAGAAGCUUAGAUCGGAAGAGCACACGU
B28: target 2 MT 5'PFS CAU 3'PFS CUU (mixed)
RNA 1: CACCCGUGCAAAAUUGCAGGGGUCUAAAACCUUCUCCAAAUUGUUUCAUCCU
RNA 2: GGGAAUGGAUCCACAUCUACGAAUUCCAUAGGAUGAAACAAUUUGGAGAAGCUUAGAUCGGAAGAGCACACGU

biological target: T1, EsCas13d, nuclease-dead; test: crRNA (strand 1, pre-loaded); Mg2+; 40 mM Tris-HCl pH 7.5, 150 mM NaCl, 6 mM MgCl2, 1 mM DTT, 0.1% Tween-20, 0.2 mg/ml BSA; 25 C; 10 min per concentration, then washed; settings: tags: His6-TwinStrep-SUMO cleaved; N-terminal SNAP kept (SNAP-Surface 488); label: 3' end held by stalled T7 RNA polymerase

Which Kd does the source give for B1 here?
The Kd was 13.1 ± 1.5 nM.

B2 was tested. Which Kd did it give?
Its Kd is 20.5 ± 2.1 nM.

Which Kd does the source give for B3 here?
Its Kd is 9.4 ± 0.8 nM.

For B4, which Kd is on record?
The Kd was 14.1 ± 1.3 nM.

How did the Kd turn out when B5 was run?
The Kd was 7.6 ± 1 nM.

B6 was tested. Which Kd did it give?
Its Kd is 7.8 ± 1.6 nM.

With B7 as the binder, how does the Kd read?
Its Kd is 18 ± 6 nM.

With B8 as the binder, how does the Kd read?
The Kd was 14.9 ± 2.4 nM.

How did the Kd turn out when B9 was run?
The Kd was 17 ± 4 nM.

B10 was tested. Which Kd did it give?
Its Kd is 3.5 ± 0.4 nM.

With B11 as the binder, how does the Kd read?
The Kd was 45 ± 6 nM.

Which Kd does the source give for B12 here?
The Kd was 14 ± 2.1 nM.

Which Kd does the source give for B13 here?
The Kd was 7.4 ± 1.2 nM.

How did the Kd turn out when B14 was run?
The Kd was 4.1 ± 0.6 nM.

For B15, which Kd is on record?
The Kd was 14.9 ± 1.7 nM.

How did the Kd turn out when B16 was run?
Its Kd is 30 ± 8 nM.

B17 was tested. Which Kd did it give?
Its Kd is 9 ± 1.1 nM.

For B18, which Kd is on record?
Its Kd is 16 ± 4 nM.

B19 was tested. Which Kd did it give?
The Kd was 6.7 ± 2.1 nM.

Which Kd does the source give for B20 here?
Its Kd is 4.1 ± 0.4 nM.

For B21, which Kd is on record?
The Kd was 12.1 ± 1.9 nM.

Which Kd does the source give for B22 here?
The Kd was 46 ± 6 nM.

With B23 as the binder, how does the Kd read?
The Kd was 9.6 ± 2.4 nM.

B24 was tested. Which Kd did it give?
Its Kd is 7.3 ± 1.2 nM.

With B25 as the binder, how does the Kd read?
The Kd was 13.1 ± 3.1 nM.

Which Kd does the source give for B26 here?
Its Kd is 13.8 ± 1.2 nM.

With B27 as the binder, how does the Kd read?
Its Kd is 6.3 ± 1.6 nM.

For B28, which Kd is on record?
The Kd was 4.6 ± 0.6 nM.

From PMC10786891, “Massively parallel profiling of RNA-targeting CRISPR-Cas13d”
